From PMC4720418, “Experimental validation of in silico model‐predicted isocitrate dehydrogenase and phosphomannose isomerase from D ehalococcoides mccartyi” (Microbial Biotechnology, 2015)

Columns and labels:
Test in all cases: purified protein
Type in all cases: biochemical, Dehalococcoides mccartyi
purified protein [1] = substrate: NC(=O)c1ccc[n+]([C@@H]2O[C@H](COP(=O)(O)OP(=O)(O)OC[C@H]3O[C@@H](n4cnc5c(N)ncnc54)[C@H](OP(=O)(O)O)[C@@H]3O)[C@@H](O)[C@H]2O)c1; settings: D-isocitric acid as co-substrate (1 mM in standard assay), 10 mM MgCl2, 50 mM Tris-HCl pH 7.5 (standard assay; kinetics at selected pH), 30 °C, varied: cofactor
purified protein [2] = substrate: O=C(O)C[C@H](C(=O)O)[C@@H](O)C(=O)O; settings: 0.3 mM NADP+, 10 mM MgCl2, 50 mM Tris-HCl pH 7.5 (standard assay; kinetics at selected pH), 30 °C
purified protein [3] = substrate: NC(=O)c1ccc[n+]([C@@H]2O[C@H](COP(=O)(O)OP(=O)(O)OC[C@H]3O[C@@H](n4cnc5c(N)ncnc54)[C@H](O)[C@@H]3O)[C@@H](O)[C@H]2O)c1; settings: D-isocitric acid as co-substrate (1 mM in standard assay), 10 mM MgCl2, 50 mM Tris-HCl pH 7.5 (standard assay; kinetics at selected pH), 30 °C, varied: cofactor

B1: DmIDH (KB1_0495) (Dehalococcoides mccartyi CBDB1) (protein)
chain: MYHNVTLIPGDGIGPEISEATRRVLEATGVKFNWEVVNAGADVVAEYGTPLPDMVLESIRKNKVAIKGPVTTPVGSGFRSVNVGMRKALNLYTCLRPCKTYPGVPSRYDNVDIVIVRENMEDLYAGIEFEKGSAEALRLIEFIKENKKVEIRTDSGISIKPISVFGTERIFRWAFKYAKDNNRKKVTAVHKANIMKYSDGLFLAVGRKVAEEYPEIEFEDRIVDNMTMQLVKTPTQFDILVCPNLYGDILSDLCAGLVGGLGVAPGANIGDEYALFEPTHGSAPKYKGLNKVNPMAMMLSGVLMLRYLKEEKAADKLENAIAAVIAEGKSVTYDMLSPDKQAVAVGTSQVADAIIAKMK
notes: recombinant, N-terminal 6xHis tag with TEV site (modified pET-15b), E. coli BL21(DE3), Ni-NTA and gel filtration
Km (purified protein [1]): 27 ± 20 µM
Vmax (purified protein [1]): 20.8 µmol/min/mg
kcat (purified protein [1]): 14.6 ± 1 s⁻¹
kcat/Km (purified protein [1]): 540000 ± 1000 M⁻¹ s⁻¹
Km (purified protein [2]): 110 ± 10 µM
Vmax (purified protein [2]): 21.3 µmol/min/mg
kcat (purified protein [2]): 15 ± 1 s⁻¹
kcat/Km (purified protein [2]): 139600 ± 1000 M⁻¹ s⁻¹
Km (purified protein [3]): 120 ± 40 µM
Vmax (purified protein [3]): 0.32 µmol/min/mg
kcat (purified protein [3]): 0.22 ± 0.03 s⁻¹
kcat/Km (purified protein [3]): 2000 ± 1000 M⁻¹ s⁻¹
